Measurements published in patent US20040161448.

What was measured:
[1] = molecular target: T1, Soybean Kunitz Trypsin Inhibitor, P01070
T1 chain: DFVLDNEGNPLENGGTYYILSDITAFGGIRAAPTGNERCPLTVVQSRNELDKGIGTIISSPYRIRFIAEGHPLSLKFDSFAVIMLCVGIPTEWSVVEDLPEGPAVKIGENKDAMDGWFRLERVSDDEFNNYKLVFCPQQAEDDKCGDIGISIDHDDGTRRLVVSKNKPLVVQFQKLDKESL

[2] = molecular target: soybean agglutinin (SBA), P05046
[3] = molecular target: T2, soybean Bowman-Birk Inhibitor, P01055
T2 chain: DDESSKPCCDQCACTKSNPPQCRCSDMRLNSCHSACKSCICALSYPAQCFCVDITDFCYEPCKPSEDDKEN

Chain of soybean agglutinin (SBA), P05046 (P05046 33-285): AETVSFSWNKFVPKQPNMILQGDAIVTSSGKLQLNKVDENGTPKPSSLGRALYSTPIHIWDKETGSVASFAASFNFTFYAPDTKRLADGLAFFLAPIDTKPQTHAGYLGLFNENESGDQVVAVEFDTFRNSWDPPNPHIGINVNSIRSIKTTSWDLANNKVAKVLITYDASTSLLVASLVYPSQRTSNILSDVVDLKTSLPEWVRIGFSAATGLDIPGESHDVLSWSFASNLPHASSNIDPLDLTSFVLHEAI

B1: protease derived from Nocardiopsis sp. NRRL 18262 (protein)
chain: ADIIGGLAYTMGGRCSVGFAATNAAGQPGFVTAGHCGRVGTQVTIGNGRGVFEQSVFPGNDAAFVRGTSNFTLTNLVSRYNTGGYATVAGHNQAPIGSSVCRSGSTTGWHCGTIQARGQSVSYPEGTVTNMTRTTVCAEPGDSGGSYISGTQAQGVTSGGSGNCRTGGTTFYQEVTPMVNSWGVRLRT
- % of anti-nutritional factor degraded [1]: 100%
- % of anti-nutritional factor degraded [2]: 75%
- % of anti-nutritional factor degraded [3]: 25%
